Square brackets hold non-standard residues; d marks the D form. * marks the point of attachment. Sta = CC(C)C[C@H](N)[C@@H](O)CC(=O)O; NHPhenethyl = c1ccc(CCN*)cc1; Cbz = O=C(OCc1ccccc1)*
Columns and labels:
[1] = target: recombinant P. falciparum plasmepsin V (residues N80-R528) (Plasmodium falciparum, UniProt Q8I6Z5 80-528); assay: cell-based or functional assay
[2] = target: plasmepsin V in P. falciparum parasites (endogenous enzyme in trophozoites expressing PfEMP3-GFP) (Plasmodium falciparum, UniProt Q8I6Z5 1-590); assay: cell-based or functional assay
Chain of plasmepsin V in P. falciparum parasites (endogenous enzyme in trophozoites expressing PfEMP3-GFP) (Q8I6Z5 whole entry): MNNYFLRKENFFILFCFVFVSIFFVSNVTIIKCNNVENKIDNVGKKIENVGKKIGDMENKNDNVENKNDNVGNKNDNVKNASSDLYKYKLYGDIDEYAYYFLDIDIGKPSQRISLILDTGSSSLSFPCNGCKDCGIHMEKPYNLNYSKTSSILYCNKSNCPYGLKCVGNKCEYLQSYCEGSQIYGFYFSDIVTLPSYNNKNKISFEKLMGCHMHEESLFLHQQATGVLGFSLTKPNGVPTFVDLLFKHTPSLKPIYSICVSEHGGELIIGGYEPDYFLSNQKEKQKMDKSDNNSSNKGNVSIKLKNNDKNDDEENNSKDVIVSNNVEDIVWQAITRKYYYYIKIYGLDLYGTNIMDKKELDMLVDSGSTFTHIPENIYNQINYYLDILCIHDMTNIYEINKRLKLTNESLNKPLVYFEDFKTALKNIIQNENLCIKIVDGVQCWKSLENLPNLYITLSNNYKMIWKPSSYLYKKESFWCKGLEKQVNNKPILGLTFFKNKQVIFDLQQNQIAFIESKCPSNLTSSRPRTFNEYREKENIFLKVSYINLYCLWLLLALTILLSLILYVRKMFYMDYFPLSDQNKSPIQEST

Chain of recombinant P. falciparum plasmepsin V (residues N80-R528) (Q8I6Z5 80-528): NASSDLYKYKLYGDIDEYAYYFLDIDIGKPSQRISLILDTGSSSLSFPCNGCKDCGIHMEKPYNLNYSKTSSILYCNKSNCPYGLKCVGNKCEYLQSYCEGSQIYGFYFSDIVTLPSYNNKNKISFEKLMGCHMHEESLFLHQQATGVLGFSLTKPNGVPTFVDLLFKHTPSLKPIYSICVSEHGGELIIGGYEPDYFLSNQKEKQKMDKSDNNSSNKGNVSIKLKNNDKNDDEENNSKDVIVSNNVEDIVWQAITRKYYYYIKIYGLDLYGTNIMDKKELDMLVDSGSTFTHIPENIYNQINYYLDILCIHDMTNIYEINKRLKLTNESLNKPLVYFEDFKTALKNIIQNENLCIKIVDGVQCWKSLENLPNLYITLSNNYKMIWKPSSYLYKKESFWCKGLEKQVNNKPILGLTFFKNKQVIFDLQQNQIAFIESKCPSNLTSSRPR

B1: WEHI-842, Cbz-Cav(NH2)-Val-Sta-NH(CH2)2Ph.TFA (peptide)
peptide: Cbz-X-Val-[Sta]-NHPhenethyl
modifications: not fully specified (residue 1); printed as Cbz-Cav(NH2)-Val-Sta-NH(CH2)2Ph; also: TFA salt
- IC50, inhibition of cleavage of the fluorogenic KAHRP PEXEL peptide [1]: 0.79 nM
- inhibition of PEXEL processing of PfEMP3-GFP in parasites, immunoblot, fold against WEHI-916 [2]: 10 fold
- inhibition of PfEMP3-GFP PEXEL cleavage in parasites, radiolabelling and densitometry, fold against WEHI-916 [2]: 10 fold
